Changes are numbered by the printed parent chain.
Experiments:
Cynomolgus GPRC5D = target: T1, Cynomolgus GPRC5D (Cynomolgus, UniProt Q9NZD1 1-343 (human entry)); test: flow cytometry on CHO-cyGPRC5D cells
T1 construct: Full length, on stably transfected cells (HEK293-cyGPRC5D, CHO-cyGPRC5D); also called cyGPRC5D
T1 chain: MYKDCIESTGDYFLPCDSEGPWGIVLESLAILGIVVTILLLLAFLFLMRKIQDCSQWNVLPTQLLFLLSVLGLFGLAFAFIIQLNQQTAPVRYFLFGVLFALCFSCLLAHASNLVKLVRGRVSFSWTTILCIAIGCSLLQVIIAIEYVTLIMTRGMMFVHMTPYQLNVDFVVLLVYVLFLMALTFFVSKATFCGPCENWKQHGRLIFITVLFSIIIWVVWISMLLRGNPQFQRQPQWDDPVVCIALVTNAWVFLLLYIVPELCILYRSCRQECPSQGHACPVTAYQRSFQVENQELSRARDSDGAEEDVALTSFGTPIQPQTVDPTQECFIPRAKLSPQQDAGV
Protocol: (§1) The binding of the antibodies to human and Cynomolgus GPRC5D stably transfected cells was detected by flow cytometry. […] Then, 100 μl/well of the cell suspension was added to a 96-well U-shaped plate, and centrifuged at 300 g for 5 min. The supernatant was discarded. 100 μL per well of serially diluted antibody was added (initial concentration: 200 nM, 3-fold dilution, 12 gradients), and incubated at 4° C. for 45 min. The secondary antibody 50 μL/well of Alexa Fluro647 labeled goat anti-human IgG Fc (1:300 dilution) was added, incubated on ice for 45 min, and detected by flow cytometry.

human GPRC5D [1] = target: T2, human GPRC5D (human, UniProt Q9NZD1 1-345); test: flow cytometry on CHO-hGPRC5D cells
T2 construct: Full length, on stably transfected cells (HEK293-hGPRC5D, CHO-hGPRC5D); Also used here for the endogenous GPRC5D of the GPRC5D+ myeloma lines MM.1R, MM.1S and NCI-H929; also called hGPRC5D; G-protein-coupled receptor family C group 5 member D
T2 sequence (Q9NZD1 whole entry): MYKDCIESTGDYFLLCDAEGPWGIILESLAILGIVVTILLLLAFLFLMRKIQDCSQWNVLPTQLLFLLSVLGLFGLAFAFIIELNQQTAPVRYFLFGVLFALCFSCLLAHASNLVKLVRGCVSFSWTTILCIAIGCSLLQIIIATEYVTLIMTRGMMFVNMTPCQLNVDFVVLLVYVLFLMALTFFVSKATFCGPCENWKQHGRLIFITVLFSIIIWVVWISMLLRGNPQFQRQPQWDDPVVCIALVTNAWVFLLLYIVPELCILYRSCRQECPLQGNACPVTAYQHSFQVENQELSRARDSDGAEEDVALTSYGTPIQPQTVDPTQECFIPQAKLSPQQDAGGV
Protocol: as §1

human GPRC5D [2] = target: T2, human GPRC5D; test: cell-based or functional assay
human GPRC5D [3] = target: T2, human GPRC5D; test: flow cytometry, MM.1R cells
Protocol: The cell suspension was adjusted to a concentration of 5×10⁵ cells/mL, and 100 μL per well was added to a 96-well U-shaped plate, centrifuged at 300 g for 5 min. The supernatant was discarded. 100 μL per well of serially diluted antibody was added (initial concentration: 200 nM, 3-fold dilution, 10 gradients), and incubated at 4° C. for 60 min. The primary antibody was washed away, and 50 μL/well Alexa Fluro647 labeled goat anti-human IgG FC (1:300 dilution) was added, and incubated for 20 min. After washing once, 50 μL/well of PI was added, incubated for 5 min, and detected by flow cytometry.

human GPRC5D [4] = target: T2, human GPRC5D; test: flow cytometry, HEK293-hGPRC5D cells
Protocol: Cell suspensions of HEK293-hGPRC5D and HEK293-hBCMA stably transfected cells in logarithmic growth phase were adjusted to 5×10⁵ cells/ml. Then, 100 μl/well of the cell suspension was added to a 96-well U-shaped plate, and centrifuged at 300 g for 5 min. The supernatant was discarded. 100 μL per well of serially diluted antibody was added, and incubated at 4° C. for 60 min. The secondary antibody 50 μL/well of Alexa Fluro647 labeled goat anti-human IgG Fc (1:300 dilution) was added, and incubated on ice for 20 min. After washing once, 50 μL/well of PI solution was added, incubated for 5 min, and detected by flow cytometry.

human GPRC5D [5] = target: T2, human GPRC5D; test: cell-based or functional assay; remark: listed apart in the source
[6] = target: T3, biotinylated CD3 recombinant antigen (CD3εγ) (Homo sapiens (Human), UniProt P07766 23-126; P09693 23-116, Biotinylated; site and chemistry not stated. The letters do not carry the biotin.); test: BLI, biotinylated antigen on SA probe, antibody as analyte
T3 construct: also called CD3e antigen; copies: 1 + 1
T3 sequence (P07766 23-126 limits assumed, chain 1 of 2): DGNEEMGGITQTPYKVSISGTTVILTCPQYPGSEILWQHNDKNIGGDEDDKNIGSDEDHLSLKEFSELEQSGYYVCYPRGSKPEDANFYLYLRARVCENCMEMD
T3 sequence (P09693 23-116 limits assumed, chain 2 of 2): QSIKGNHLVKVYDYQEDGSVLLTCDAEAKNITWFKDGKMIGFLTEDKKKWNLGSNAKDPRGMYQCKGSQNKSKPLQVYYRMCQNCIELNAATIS

B1: anti-GPRC5D chimeric antibody 15D1 (antibody, V domains shown)
VH: EVQLQQSGPELGKPGASVKMSCKASGYTFTNYVMHWVKQKPGQGLEWIGYINPYNDGTKYNEKFKGKATLTSDKSSNTAYMELSSLTSEDSAVYYCARGGVRRYFDYWGQGTTLTVSS
VL: DIQMTQSPSSLSASLGERVSLTCRASQDIGSNLNWLQQEPDGTIKRLIYATSSLDSGVPKRFSGSRSGSDYSLTISSLESEDFVDYYCLQYASFPYTFGGGTKLEIK
- binding result (Cynomolgus GPRC5D): binds
- EC50 (read off the curve) (human GPRC5D [1]): ~0.1 nM

B2: 4D3 × CD3 GPRC5D×CD3 κλ bispecific antibody (bispecific antibody, human IgG4, V domains shown)
VH 1: QVQLVQSGAEVKKPGSSVKVSCKASGYTFTNFPIEWMREAPGQGLEWMGNFHPYNDVTKYNEKFQGRVTLTVDKSSSTVYMELSSLRSEDTAVYYCALITRGYWGQGTLVTVSS
VL 1: DIVMTQSPDSLAVSLGERATINCKSSQSLLYSRNQKNSLAWYQKKPGQPPKLLIYWASTRESGVPDRFSGSGSGTDFTLTISSLQAEDVAVYYCQQYYSYPLTFGQGTKLEIK
VH 2: EVQLVESGGGLVQPGGSLRLSCAASGFTFNTYAMNWVRKAPGKGLEWVGRIRSKYNNYATYYADSVKDRFTISRDDSKNSLYLQMNSLKTEDTAVYYCVRHGNFGNSYVSWFAYWGQGTLVTVSS
VL 2: QAVVTQEPSLTVSPGGTVTLTCRSSTGAVTTSNYANWVQEKPGQAPRGLIGGTNKRAPWTPARFSGSLLGGKAALTITGAQAEDEAEYYCVLWYSNLWVFGGGTKLTVL
notes: Human IgG4 knob-into-hole Fc with Ser228Pro, Leu235Glu, Pro329Ala
- TDCC EC50 (pM), MM.1R (human GPRC5D [2]): 6.18 pM
- EC50 (human GPRC5D [3]): 10.7 nM
- Maximum fluorescence intensity (MFI, 200 nM) (human GPRC5D [3]): 110000 MFI

B3: 15D1 × CD3 GPRC5D×CD3 κλ bispecific antibody (bispecific antibody, human IgG4, V domains shown)
VH 1: QVQLVQSGAEVKKPGSSVKVSCKASGYTFTNYVMHWVKEKPGQGLEWMGYINPYNDGTKYNEKFQGRVTLTSDKSSNTAYMELSSLRSEDTAVYYCARGGVRRYFDYWGQGTLVTVSS
VL 1: DIQMTQSPSSLSASVGDRVTITCRASQDIGSNLNWLQKEPGKAPKRLIYATSSLDSGVPSRFSGSRSGSDYTLTISSLQPEDFATYYCLQYASFPYTFGQGTKLEIK
VH 2: B2 VH 2
VL 2: B2 VL 2
notes: as for B2
- TDCC EC50 (pM), MM.1R (human GPRC5D [2]): 96.5 pM
- Maximum fluorescence intensity (MFI, 200 nM) (human GPRC5D [3]): 12800 MFI

B4: 8D1 × CD3 GPRC5D×CD3 κλ bispecific antibody (bispecific antibody, human IgG4, V domains shown)
VH 1: QVQLVQSGAEVKKPGSSVKVSCKASGYTFTSYYMYWVREAPGQGLEWMGGINPSNGGTKYNEKFQGRVTLTVDKSSSTAYMELSSLRSEDTAVYYCTRGSLRSYYYAMDYWGQGTLVTVSS
VL 1: DIQMTQSPSSLSASVGDRVTITCQASQDISNYLNWYQKKPGKAPKLLIYYTSRLHSGVPSRFSGSGSGTDYTFTISSLQPEDIATYFCQQGYSLPYTFGQGTKLEIK
VH 2: B2 VH 2
VL 2: B2 VL 2
notes: as for B2
- TDCC EC50 (pM), MM.1R (human GPRC5D [2]): 32.9 pM
- EC50 (human GPRC5D [3]): 3.34 nM
- Maximum fluorescence intensity (MFI, 200 nM) (human GPRC5D [3]): 89000 MFI

B5: anti-GPRC5D chimeric antibody 6H1 (antibody, V domains shown)
VH: QAYLQQSGAELVRSGASVKMSCKASGYTFTSYNMHWVKQTPGQGLEWIGYIYPGNGGTNYNQKFKGKATLTADTSSSTAYMQISSLTSEDSAVYFCARGYGYRYWYFDVWGTGTTVTVSS
VL: QIVLTQSPAIMSASPGEKVTMTCSASSSVSYMHWYQQKSGTSPKRWIYDTSKLASGVPARFSGSGSGTSYSLTISSMEAEDAATYYCQQWNSKPPTFGSGTKLEIK
- binding result (Cynomolgus GPRC5D): binds
- binding result (human GPRC5D [1]): binds

B6: anti-GPRC5D chimeric antibody 2E1 (antibody, V domains shown)
VH: QVQLQQPGAELVKPGASVKLSCKASGYTFTRYWMHWVKQRPGQGLDWIGEFNPSNGRINYNEKFKNKATLTIDKSSSTAYMQLSSLTSEDSAVYYCTRGFAYWGQGTLVTVSA
VL: B5 VL with K18R, S28T, M32I, N91T, S92T, K93N, P95W, S99G
- binding result (Cynomolgus GPRC5D): binds
- binding result (human GPRC5D [1]): binds

B7: anti-GPRC5D chimeric antibody 4B1 (antibody, V domains shown)
VH: B5 VH with K63N, T112A
VL: B5 VL with A59V, N91S, S92N, K93Y
- binding result (Cynomolgus GPRC5D): binds
- EC50 (read off the curve) (human GPRC5D [1]): ~0.6 nM

B8: anti-GPRC5D chimeric antibody 8D1 (antibody, V domains shown)
VH: QVQLQQPGAELVKPGASVKLSCKASGYTFTSYYMYWVKQRPGQGLEWIGGINPSNGGTKYNEKFKSKATLTVDKSSSTAFMQLSSLTSEDSAVYYCTRGSLRSYYYAMDYWGQGTSVTVSS
VL: DIQMTQTTSSLSASLGDRVTISCRASQDISNYLNWYQQKPDGTVKLLIYYTSRLHSGVPSRFSGSGSGTDYSLTISNLEQEDLATYFCQQGYSLPYTFGGGTKLEIK
- EC50 (read off the curve) (Cynomolgus GPRC5D): ~0.4 nM
- binding result (human GPRC5D [1]): binds

B9: GPRC5D × BCMA × CD3 triTCE-v3 trispecific antibody (other)
light 1: QAVVTQEPSLTVSPGGTVTLTCRSSTGAVTTSNYANWVQEKPGQAPRGLIGGTNKRAPWTPARFSGSLLGGKAALTITGAQAEDEAEYYCVLWYSNLWVFGGGTKLTVLGQPKAAPSVTLFPPSSEELQANKATLVCLISDFYPGAVTVAWKADSSPVKAGVETTTPSKQSNNKYAASSYLSLTPEQWKSHRSYSCQVTHEGSTVEKTVAPTECS
heavy 1: DIQMTQSPSSLSASVGDRVTITCQASQNVGTNVAWYQQKPGQAPKALIYSASYLNSGVPSRFSGSGSGTDFTFTISSLQPEDIATYFCQQYNSYLLTFGCGTKVEIKGGGGSGGGGSGGGGSQVQLVQSGAEVKKPGSSVKVSCKASGYSFTGYTMNWVRQAPGQCLEWMGLINPYNGGTRYNQKFQGRVTITADESTSTAYMELSSLRSEDTAVYYCARWALRYGMDYWGQGTLVTVSSGGGGSGGGGSGGGGSEVQLVESGGGLVQPGGSLRLSCAASGFTFNTYAMNWVRKAPGKGLEWVGRIRSKYNNYATYYADSVKDRFTISRDDSKNSLYLQMNSLKTEDTAVYYCVRHGNFGNSYVSWFAYWGQGTLVTVSSASTKGPSVFPLAPCSRSTSESTAALGCLVKDYFPEPVTVSWNSGALTSGVHTFPAVLQSSGLYSLSSVVTVPSSSLGTKTYTCNVDHKPSNTKVDKRVESKYGPPCPPCPAPEFEGGPSVFLFPPKPKDTLMISRTPEVTCVVVDVSQEDPEVQFNWYVDGVEVHNAKTKPREEQFNSTYRVVSVLTVLHQDWLNGKEYKCKVSNKGLASSIEKTISKAKGQPREPQVYTLPPCQEEMTKNQVSLWCLVKGFYPSDIAVEWESNGQPENNYKTTPPVLDSDGSFFLYSKLTVDKSRWQEGNVFSCSVMHEALHNHYTQKSLSLSLGK
light 2: DIVLTQSPASLAVSPGQRATITCRASKSVSTSGYSYMHWYQKKPGQPPKLLIYLASNLESGVPARFSGSGSGTDFTLTINPVEAEDTANYYCQHSRELPWTFGQGTKVEIKRTVAAPSVFIFPPSDEQLKSGTASVVCLLNNFYPREAKVQWKVDNALQSGNSQESVTEQDSKDSTYSLSSTLTLSKADYEKHKVYACEVTHQGLSSPVTKSFNRGEC
heavy 2: QVQLVQSGSELKKPGASVKVSCKASGYIFTNFGMNWVREAPGQGLEWMGWINTYTGEQIYADGFTGRFVFSLDTSVSTAYLQISSLKAEDTAVYFCARGEIYYGYDVGFVYWGQGTLVTVSS
notes: Trispecific antibody: GPRC5D scFv fused to the N-terminus of the heavy chain of the CD3 arm
- EC50 (human GPRC5D [4]): 2.7 nM
- TDCC EC50 (nM), HEK293-hGPRC5D (human GPRC5D [5]): 0.278 nM
- Kd [6]: 58.2 nM

B10: GPRC5D × BCMA × CD3 triTCE-v4 trispecific antibody (other)
light 1: B9 light 1
heavy 1: QVQLVQSGAEVKKPGSSVKVSCKASGYSFTGYTMNWVRQAPGQCLEWMGLINPYNGGTRYNQKFQGRVTITADESTSTAYMELSSLRSEDTAVYYCARWALRYGMDYWGQGTLVTVSSGGGGSGGGGSGGGGSDIQMTQSPSSLSASVGDRVTITCQASQNVGTNVAWYQQKPGQAPKALIYSASYLNSGVPSRFSGSGSGTDFTFTISSLQPEDIATYFCQQYNSYLLTFGCGTKVEIKGGGGSGGGGSGGGGSEVQLVESGGGLVQPGGSLRLSCAASGFTFNTYAMNWVRKAPGKGLEWVGRIRSKYNNYATYYADSVKDRFTISRDDSKNSLYLQMNSLKTEDTAVYYCVRHGNFGNSYVSWFAYWGQGTLVTVSSASTKGPSVFPLAPCSRSTSESTAALGCLVKDYFPEPVTVSWNSGALTSGVHTFPAVLQSSGLYSLSSVVTVPSSSLGTKTYTCNVDHKPSNTKVDKRVESKYGPPCPPCPAPEFEGGPSVFLFPPKPKDTLMISRTPEVTCVVVDVSQEDPEVQFNWYVDGVEVHNAKTKPREEQFNSTYRVVSVLTVLHQDWLNGKEYKCKVSNKGLASSIEKTISKAKGQPREPQVYTLPPCQEEMTKNQVSLWCLVKGFYPSDIAVEWESNGQPENNYKTTPPVLDSDGSFFLYSKLTVDKSRWQEGNVFSCSVMHEALHNHYTQKSLSLSLGK
light 2: B9 light 2
heavy 2: B9 heavy 2
notes: as for B9
- EC50 (human GPRC5D [4]): 9.9 nM
- TDCC EC50 (nM), HEK293-hGPRC5D (human GPRC5D [5]): 0.446 nM
- Kd [6]: 64.4 nM

B11: anti-GPRC5D chimeric antibody 2F1 (antibody, V domains shown)
VH: EVLLQQSGPELVKPGTSMKISCKASGYSFTGYTMNWVKQRHGKNLEWIGLINPYNGGTRYNQKFKGRATLTVDKSSSTAYMELLSLTSEDSAVYYCARWALRYGMDYWGQGTSVTVSS
VL: DIVMTQSQKFMSTSVGDRVSVTCKASQNVGTNVAWYQQKPGHSPKALIYSASYRNSGVPDRFTGSGSGTDFTLTISNVQSEDLAEYFCQQYNSYLLTFGGGTKLELK
- binding result (Cynomolgus GPRC5D): binds
- binding result (human GPRC5D [1]): binds
